Measurements taken from paper doi:10.1101/2024.01.29.577165.

How the values were obtained:
[1] = target: Grappling Hook Protein A (GhpA), assembled as the grappling hook (Aureispira sp. CCB-QB1); test: cryo-EM structure
[2] = target: Grappling Hook Protein A (GhpA), assembled as the grappling hook (Aureispira sp. CCB-QB1); test: cryo-electron tomography with subtomogram averaging

stoichiometry N [1]: 7
stoichiometry N [2]: 7
Substance: Grappling Hook Protein A (GhpA), assembled as the grappling hook (natural protein)
